Source: patent US20250382388A1 (ARGENX, published 2025)
Positions count from the first letter of the chain named. Names may count otherwise. Each block holds one binder with its values, some of them ahead of it.

Key:
human serum albumin [1] = biological target: T1, human serum albumin (human, UniProt P02768 25-609); assay: SPR, Langmuir 1:1 or steady state model, pH 7.4 (ka and kd N/A)
T1 construct: Immobilised on SPR chips; also added in solution to the cell assays; also called HSA; humanSA

[2] = biological target: T2, neonatal Fc receptor (FcRn), endogenous in U937 cells (UniProt P55899 24-365; P61769 21-119); assay: cell FcRn occupancy, flow cytometry, free FcRn stained with labelled anti-FcRn Fab, U937 cells, 2,500 nM HSA (SD 0.1)
T2 construct: whole, on cells; Free FcRn was stained inside fixed and permeabilised cells
Method: (§1) Next, FcRn occupancy was tested using a cell-based FcRn occupancy assay in the presence or absence of albumin. Briefly, test articles (Fc-ABDEG-VHH molecules) were pre-incubated with HSA for 30 minutes at 37° C., pH 7.4 in FACS buffer. Cells (HEK FcRn mut or U937) were plated in a 96-well microplate. Cells were incubated with test article for two hours, shaking at 37° C., pH 7.4 in FACS buffer. Plates were then transferred immediately on ice and cells were collected by centrifugation at 4° C. Cells stained for viability in FACS buffer at pH 6 and then fixed/permeabilized in permeabilization buffer at pH 6. […] Cells were analyzed by FACS, ensuring that they are kept on ice until immediately prior to analysis.

human serum albumin [3] = biological target: T1, human serum albumin; assay: SPR, Langmuir 1:1 or steady state model, pH 5.5
human serum albumin [4] = biological target: T1, human serum albumin; assay: SPR, pH 7.4 and 5.5
human serum albumin [5] = biological target: T1, human serum albumin; assay: SPR, pH 7.4 (ka and kd N/A)
human serum albumin [6] = biological target: T1, human serum albumin; assay: SPR, pH 5.5
[7] = biological target: T3, FcRn-L322A/L323A expressed in HEK293 cells (UniProt P55899 24-365); assay: cell FcRn occupancy, flow cytometry, free FcRn stained with anti-FcRn-Fab AF647, HEK293-FcRn-L322A/L323A cells, with HSA
[8] = biological target: T2, neonatal Fc receptor (FcRn), endogenous …; assay: cell FcRn occupancy, flow cytometry, free FcRn stained with anti-FcRn-Fab AF647, U937 cells, with HSA
Method: as §1

[9] = biological target: T3, FcRn-L322A/L323A expressed in HEK293 …; assay: cell FcRn occupancy, flow cytometry, free FcRn stained with anti-FcRn-Fab AF647, HEK293-FcRn-L322A/L323A cells, without HSA
[10] = biological target: T2, neonatal Fc receptor (FcRn), endogenous …; assay: cell FcRn occupancy, flow cytometry, free FcRn stained with labelled anti-FcRn Fab, U937 cells, 2,500 nM HSA (SD 1.4)
Method: as §1

[11] = biological target: T2, neonatal Fc receptor (FcRn), endogenous …; assay: cell FcRn occupancy, flow cytometry, free FcRn stained with labelled anti-FcRn Fab, U937 cells, 2,500 nM HSA (SD 0.5)
Method: as §1

human serum albumin [12] = biological target: T1, human serum albumin; assay: SPR, pH 5.5 (ka and kd N/A)
human serum albumin [13] = biological target: T1, human serum albumin; assay: SPR, pH 7.4
human serum albumin [14] = biological target: T1, human serum albumin; assay: SPR, Langmuir 1:1 or steady state model, pH 7.4
human serum albumin [15] = biological target: T1, human serum albumin; assay: SPR, pH 5.5; pH 5.5
human serum albumin [16] = biological target: T1, human serum albumin; assay: SPR Biacore 3000, HSA on chip, pH 7.4
human serum albumin [17] = biological target: T1, human serum albumin; assay: SPR Biacore 3000, HSA on chip, pH 5.5
human serum albumin [18] = biological target: T1, human serum albumin; assay: SPR Biacore 3000, HSA on chip, ratio of R0 at pH 5.5 to pH 7.4
human serum albumin [19] = biological target: T1, human serum albumin; assay: not stated there (refers to the earlier SPR)

- Kd (human serum albumin [1]): 49000 nM
- IC50 [2]: 2.1 nM
- Kd (human serum albumin [3]): 20300 nM
- koff (human serum albumin [3]): 0.351 s⁻¹
- kon (human serum albumin [3]): 17300 M⁻¹ s⁻¹
- fold decrease in affinity against OA-Fc-ABDEG-Alb23 (human serum albumin [4]): > 300 fold
- Kd (human serum albumin [5]): 49000 nM
- Kd (human serum albumin [6]): 20300 nM
- koff (human serum albumin [6]): 0.351 s⁻¹
- kon (human serum albumin [6]): 17300 M⁻¹ s⁻¹
B1: ABDEG-30GS-Alb23-SM (Fc fusion)
chain 1: DKTHTCPPCPAPELLGGPSVFLFPPKPKDTLYITREPEVTCVVVDVSHEDPEVKFNWYVDGVEVHNAKTKPREEQYNSTYRVVSVLTVLHQDWLNGKEYKCKVSNKALPAPIEKTISKAKGQPREPQVYTLPPSRDELTKNQVSLWCLVKGFYPSDIAVEWESNGQPENNYKTTPPVLDSDGSFFLYSKLTVDKSRWQQGNVFSCSVMHEALKFHYTQKSLSLSPGGGGGSGGGGSGGGGSGGGGSGGGGSGGGGSEVQLLESGGGLVQPGGSLRLSCAASGFTFRSAGMSWVRQAPGKGPEWVSSISGSGSDTLYADSVKGRFTISRDNSKNTLYLQMNSLRPEDTAVYYCTIGGSLSRSSQGTLVTVSS
chain 2: DKTHTCPPCPAPELLGGPSVFLFPPKPKDTLYITREPEVTCVVVDVSHEDPEVKFNWYVDGVEVHNAKTKPREEQYNSTYRVVSVLTVLHQDWLNGKEYKCKVSNKALPAPIEKTISKAKGQPREPQVYTLPPSRDELTKNQVSLSCAVKGFYPSDIAVEWESNGQPENNYKTTPPVLDSDGSFFLVSKLTVDKSRWQQGNVFSCSVMHEALKFHYTQKSLSLSPG
notes: also called OA-Fc-ABDEG-30GS-Alb23-F32A; OA-ABDEG-30GS-Alb23-SM

- % max occupancy [7]: 57.7%
- IC50 [7]: 16.1 nM
- % max occupancy [8]: 56.8%
- IC50 [8]: 4.8 nM
- IC50 [9]: 6.8 nM
- IC50 [10]: 2.9 nM
B2: efgartigimod (human IgG1 Fc fragment with ABDEG mutations) (other)
chain: B1 chain 2 with S146T, A148L, V187Y
notes: residues 1-226 (my count) are the Fc part; also called ARGX-113; efgartigimod alfa

- Kd (human serum albumin [5]): 31400 nM
- IC50 [11]: 2.3 nM
- Kd (human serum albumin [12]): 19000 nM
B3: ABDEG-30GS-Alb23-SM-A (Fc fusion)
chain 1: DKTHTCPPCPAPELLGGPSVFLFPPKPKDTLYITREPEVTCVVVDVSHEDPEVKFNWYVDGVEVHNAKTKPREEQYNSTYRVVSVLTVLHQDWLNGKEYKCKVSNKALPAPIEKTISKAKGQPREPQVYTLPPSRDELTKNQVSLWCLVKGFYPSDIAVEWESNGQPENNYKTTPPVLDSDGSFFLYSKLTVDKSRWQQGNVFSCSVMHEALKFHYTQKSLSLSPGGGGGSGGGGSGGGGSGGGGSGGGGSGGGGSEVQLLESGGGLVQPGGSLRLSCAASGFTFRSAGMSWVRQAPGKGPEWVSSISGSGSDTLYADSVKGRFTISRDNSKNTLYLQMNSLRPEDTAVYYCTIGGSLSRSSQGTLVTVSSA
chain 2: B1 chain 2

- % max occupancy [7]: 67.9%
- IC50 [7]: 11.5 nM
- IC50 [9]: 6.4 nM
- Kd (human serum albumin [13]): 147 nM
- koff (human serum albumin [13]): 0.00336 s⁻¹
- kon (human serum albumin [13]): 22900 M⁻¹ s⁻¹
- Kd (human serum albumin [3]): 66.5 nM
- koff (human serum albumin [3]): 0.00186 s⁻¹
- kon (human serum albumin [3]): 27900 M⁻¹ s⁻¹
- Kd (human serum albumin [14]): 147 nM
- koff (human serum albumin [14]): 0.00336 s⁻¹
- kon (human serum albumin [14]): 22900 M⁻¹ s⁻¹
- kon (human serum albumin [15]): 27900 M⁻¹ s⁻¹
- Kd (human serum albumin [6]): 66.5 nM
- koff (human serum albumin [6]): 0.00186 s⁻¹
B4: OA-Fc-ABDEG-Alb23 (Fc fusion)
chain 1: DKTHTCPPCPAPELLGGPSVFLFPPKPKDTLYITREPEVTCVVVDVSHEDPEVKFNWYVDGVEVHNAKTKPREEQYNSTYRVVSVLTVLHQDWLNGKEYKCKVSNKALPAPIEKTISKAKGQPREPQVYTLPPSRDELTKNQVSLWCLVKGFYPSDIAVEWESNGQPENNYKTTPPVLDSDGSFFLYSKLTVDKSRWQQGNVFSCSVMHEALKFHYTQKSLSLSPGGGGGSGGGGSGGGGSGGGGSEVQLLESGGGLVQPGGSLRLSCAASGFTFRSFGMSWVRQAPGKGPEWVSSISGSGSDTLYADSVKGRFTISRDNSKNTLYLQMNSLRPEDTAVYYCTIGGSLSRSSQGTLVTVSS
chain 2: B1 chain 2
notes: also called OA-Fc-ABDEG-20GS-Alb23; ABDEG-20GS-Alb23

- R0 pH7.4 (human serum albumin [16]): 115 RU
- koff (human serum albumin [16]): 0.00072 s⁻¹
- R0 pH5.5 (human serum albumin [17]): 351 RU
- koff (human serum albumin [17]): 0.00016 s⁻¹
- R0 5.5/7.4 (human serum albumin [18]): 3
B5: TA-Fc-ABDEG-2H11 (2H11 parental fused at the C-terminus of Fc-ABDEG) (Fc fusion)
chain: DKTHTCPPCPAPELLGGPSVFLFPPKPKDTLYITREPEVTCVVVDVSHEDPEVKFNWYVDGVEVHNAKTKPREEQYNSTYRVVSVLTVLHQDWLNGKEYKCKVSNKALPAPIEKTISKAKGQPREPQVYTLPPSRDELTKNQVSLTCLVKGFYPSDIAVEWESNGQPENNYKTTPPVLDSDGSFFLYSKLTVDKSRWQQGNVFSCSVMHEALKFHYTQKSLSLSPGGGGGSGGGGSGGGGSGGGGSELQVVESGGGLVQAGGSLRLSCAASGRTFRSNTMGWFRQAPGKEREFVAAITWSGGTTYYADSVKGRFAISGDNAKNTVYLQMNSLKPEDTAVYYCAAEGPKWEPWNGIYHPADFGSWGQGTQVTVSS

- R0 pH7.4 (human serum albumin [16]): 6.32 RU
- koff (human serum albumin [16]): 0.0012 s⁻¹
- R0 pH5.5 (human serum albumin [17]): 93.9 RU
- koff (human serum albumin [17]): 9.72e-05 s⁻¹
- R0 5.5/7.4 (human serum albumin [18]): 14.9
B6: TA-Fc-ABDEG-2H11-v12 (Fc fusion)
chain: B5 chain with Y356A
notes: Scaffold as for m24

- R0 pH7.4 (human serum albumin [16]): 0.571 RU
- koff (human serum albumin [16]): 0.00193 s⁻¹
- R0 pH5.5 (human serum albumin [17]): 8.91 RU
- koff (human serum albumin [17]): 0.00301 s⁻¹
- R0 5.5/7.4 (human serum albumin [18]): 16
B7: TA-Fc-ABDEG-2H11-v16 (Fc fusion)
chain: B5 chain with F361A
notes: Scaffold as for m24

- R0 pH7.4 (human serum albumin [16]): 0.635 RU
- koff (human serum albumin [16]): 0.0025 s⁻¹
- R0 pH5.5 (human serum albumin [17]): 235 RU
- koff (human serum albumin [17]): 0.00174 s⁻¹
- R0 5.5/7.4 (human serum albumin [18]): 370
B8: TA-Fc-ABDEG-2H11-v15 (Fc fusion)
chain: B5 chain with D360A

- R0 pH7.4 (human serum albumin [16]): 8.24 RU
- koff (human serum albumin [16]): 0.0029 s⁻¹
- R0 pH5.5 (human serum albumin [17]): 164 RU
- koff (human serum albumin [17]): 0.000135 s⁻¹
- R0 5.5/7.4 (human serum albumin [18]): 19.9
B9: TA-Fc-ABDEG-2H11-v3 (Fc fusion)
chain: B5 chain with P347A

- fold lower affinity against parental Alb23 VHH (human serum albumin [19]): ~300 fold
B10: Alb23 F32A VHH fragment (VHH)
VHH: EVQLLESGGGLVQPGGSLRLSCAASGFTFRSAGMSWVRQAPGKGPEWVSSISGSGSDTLYADSVKGRFTISRDNSKNTLYLQMNSLRPEDTAVYYCTIGGSLSRSSQGTLVTVSS
notes: also called Alb23-SM

- % max occupancy [7]: 43.4%
- IC50 [7]: 78.3 nM
- IC50 [9]: 19.9 nM
B11: TA-Alb23-Fc-ABDEG (Fc fusion)
chain: EVQLLESGGGLVQPGGSLRLSCAASGFTFRSFGMSWVRQAPGKGPEWVSSISGSGSDTLYADSVKGRFTISRDNSKNTLYLQMNSLRPEDTAVYYCTIGGSLSRSSQGTLVTVSSDKTHTCPPCPAPELLGGPSVFLFPPKPKDTLYITREPEVTCVVVDVSHEDPEVKFNWYVDGVEVHNAKTKPREEQYNSTYRVVSVLTVLHQDWLNGKEYKCKVSNKALPAPIEKTISKAKGQPREPQVYTLPPSRDELTKNQVSLTCLVKGFYPSDIAVEWESNGQPENNYKTTPPVLDSDGSFFLYSKLTVDKSRWQQGNVFSCSVMHEALKFHYTQKSLSLSPG
notes: Alb23 VHH on the N-terminus of both Fc domains; also called two-armed N-terminal anti-HSA-Fc-ABDEG

- % max occupancy [7]: 63.8%
- IC50 [7]: 33 nM
- IC50 [9]: 20.2 nM
B12: TA-Fc-ABDEG-Alb23 (Fc fusion)
chain: B4 chain 1 with W146T
notes: also called TA-ABDEG-Alb23
